In paper PMC11995187, “Specificity landscapes of 40 R2R3‐MYBs reveal how paralogs target different cis‐elements by homodimeric binding”:

B1: Ma (dsDNA)
DNA 1: GATCCAATTGACCACTACGTTAGGTAATGGACATCAATGCCA
DNA 2: TGGCATTGATGTCCATTACCTAACGTAGTGGTCAATTGGATC
B2: ER1a (dsDNA)
DNA 1: GATCCAATTGGTTTGGTCACCGATTTAACCTCATCAATGCCA
DNA 2: TGGCATTGATGAGGTTAAATCGGTGACCAAACCAATTGGATC
B3: ER8 (dsDNA)
DNA 1: GATCCAATTGGTTAGGTCGATCTCAACCTAACATCAATGCCA
DNA 2: TGGCATTGATGTTAGGTTGAGATCGACCTAACCAATTGGATC

What was measured:
AtMYB2 = target: T1, AtMYB2 (Arabidopsis thaliana, UniProt Q39028 1-273); assay: EMSA; 24-48 ng/uL protein; single-molecule shift only, no dimer band; EMSA: 10 mM Tris pH 7.5, 50 mM KCl, 10 ng DNA in 20 uL, 25 C, 1 h; 6% native PAGE, 0.5x TBE, 4 C; settings: protein: recombinant; tags: His; label: none (gel stain); (annealed oligonucleotides)
T1 sequence: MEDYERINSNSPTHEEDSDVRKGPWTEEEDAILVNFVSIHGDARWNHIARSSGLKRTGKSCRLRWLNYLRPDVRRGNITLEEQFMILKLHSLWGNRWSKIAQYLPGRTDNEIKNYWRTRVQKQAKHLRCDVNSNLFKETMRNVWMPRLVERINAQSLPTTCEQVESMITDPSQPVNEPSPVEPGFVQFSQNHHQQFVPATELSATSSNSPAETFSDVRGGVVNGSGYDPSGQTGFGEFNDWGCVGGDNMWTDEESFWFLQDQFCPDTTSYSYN

AtMYB2 homodimer = target: T2, AtMYB2 homodimer (Arabidopsis thaliana, UniProt Q39028 1-273); assay: EMSA; 18-48 ng/uL protein; monomer band also seen, dimer band at 36 and 48 ng/uL; EMSA: 10 mM Tris pH 7.5, 50 mM KCl, 10 ng DNA in 20 uL, 25 C, 1 h; 6% native PAGE, 0.5x TBE, 4 C; settings: protein: recombinant; tags: His; chain copies: 2; label: none (gel stain); (annealed oligonucleotides)
T2 sequence: T1 sequence

| Binder | binding result (AtMYB2) | binding result (AtMYB2 homodimer) |
| --- | --- | --- |
| B1 | binds |  |
| B2 |  | binds |
| B3 |  | binds |
